From paper PMC9297866

Legend:
purified protein [1] = substrate: C=C(C)CCO[P@@](=O)(O)OP(=O)(O)O; experiment: purified protein; details: regular coupling; two-substrate reaction with DMAPP
purified protein [2] = substrate: CC(C)=CCOP(=O)(O)OP(=O)(O)O; experiment: purified protein; details: regular coupling; two-substrate reaction with IPP

B1: neryl diphosphate synthase from Solanum lycopersicum (SlNPPS) (Solanum lycopersicum; N88H) (protein)
chain: SLNLQTEKLCYEDNDNDLDEELMPKHIALIMDGHRRWAKDKGLEVYEGHKHIIPKLKEICDISSKLGIQIITAFAFSTENWKRSKEEVDFLLQMFEEIYDEFSRSGVRVSIIGCKSDLPMTLQKCIALTEETTKGNKGLHLVIALNYGGYYDILQATKSIVNKAMNGLLDVEDINKNLFDQELESKCPNPDLLIRTGGEQRVSNFLLWQLAYTEFYFTNTLFPDFGEEDLKEAIMNFQQRHRRFGGHTY
With B1 the Km (purified protein [1]) was 457 ± 91 µM, the kcat (purified protein [1]) was 87±15×10^-3 s^-1 and the Km (purified protein [2]) was 391 ± 96 µM. For the same protein, the kcat (purified protein [2]) was 87±15×10^-3 s^-1.
